Decrease of the Myc-HPat/HA-GW182 ratio in the immunoprecipitate, AGO1 knockdown cells against dsYFP control cells and decrease of the Myc-HPat/HA-GW182 ratio in the immunoprecipitate, NOT1 knockdown cells against dsYFP control cells data for one substance are collected here from paper PMC3747071.

The test deals with HA-tagged GW182 (Drosophila) (UniProt Q8SY33). The test is described as follows: co-IP; lysate of stable S2 cells expressing HA-GW182 and Myc-HPat, treated with dsRNA against YFP (control), AGO1, NOT1, EDC4 and DCP1, or XRN1; anti-HA antibody (12CA5) cross-linked to protein A sepharose; washes with NET buffer with 300 mM NaCl; quantitative Western blot.
Chain of UniProt Q8SY33 (Q8SY33 whole entry): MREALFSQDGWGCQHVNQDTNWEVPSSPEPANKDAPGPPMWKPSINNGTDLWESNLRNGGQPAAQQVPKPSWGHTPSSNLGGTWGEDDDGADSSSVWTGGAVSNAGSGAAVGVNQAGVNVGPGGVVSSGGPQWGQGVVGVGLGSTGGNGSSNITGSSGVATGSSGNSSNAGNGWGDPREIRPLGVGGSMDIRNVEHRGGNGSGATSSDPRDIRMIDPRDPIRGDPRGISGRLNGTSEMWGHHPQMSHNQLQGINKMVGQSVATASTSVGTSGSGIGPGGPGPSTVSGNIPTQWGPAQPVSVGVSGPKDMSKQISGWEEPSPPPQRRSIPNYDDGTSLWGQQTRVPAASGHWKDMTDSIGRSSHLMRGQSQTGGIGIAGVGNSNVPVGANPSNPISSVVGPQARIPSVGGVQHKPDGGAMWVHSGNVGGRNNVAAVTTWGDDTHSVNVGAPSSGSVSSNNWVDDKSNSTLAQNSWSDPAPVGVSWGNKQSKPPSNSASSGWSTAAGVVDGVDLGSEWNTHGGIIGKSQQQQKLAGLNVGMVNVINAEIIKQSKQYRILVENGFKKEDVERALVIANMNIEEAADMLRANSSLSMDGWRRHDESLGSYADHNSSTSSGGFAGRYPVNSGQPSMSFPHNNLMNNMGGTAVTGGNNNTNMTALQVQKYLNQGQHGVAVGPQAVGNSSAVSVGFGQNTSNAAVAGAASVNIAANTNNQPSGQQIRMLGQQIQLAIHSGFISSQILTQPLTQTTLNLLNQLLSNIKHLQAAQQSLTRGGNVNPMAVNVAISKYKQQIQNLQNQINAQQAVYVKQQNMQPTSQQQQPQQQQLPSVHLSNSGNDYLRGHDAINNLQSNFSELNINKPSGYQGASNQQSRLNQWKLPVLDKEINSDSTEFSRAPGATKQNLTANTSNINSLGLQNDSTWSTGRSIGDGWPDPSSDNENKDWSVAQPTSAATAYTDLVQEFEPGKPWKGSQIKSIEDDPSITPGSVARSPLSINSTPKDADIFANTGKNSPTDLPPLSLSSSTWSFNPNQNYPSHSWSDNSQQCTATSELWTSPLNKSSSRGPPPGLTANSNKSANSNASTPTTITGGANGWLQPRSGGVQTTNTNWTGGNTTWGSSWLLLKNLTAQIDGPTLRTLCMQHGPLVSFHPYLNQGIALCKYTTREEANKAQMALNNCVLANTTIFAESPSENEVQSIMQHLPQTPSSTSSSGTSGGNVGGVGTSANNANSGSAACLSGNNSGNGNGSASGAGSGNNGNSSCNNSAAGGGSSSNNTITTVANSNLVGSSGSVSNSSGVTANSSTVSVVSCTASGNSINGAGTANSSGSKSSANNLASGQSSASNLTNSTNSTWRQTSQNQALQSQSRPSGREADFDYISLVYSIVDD

With Myc-tagged HPat (natural protein), the decrease of the Myc-HPat/HA-GW182 ratio in the immunoprecipitate, AGO1 knockdown cells against dsYFP control cells stood at 84.6% and the decrease of the Myc-HPat/HA-GW182 ratio in the immunoprecipitate, NOT1 knockdown cells against dsYFP control cells was found to be 69.7%.
